Laboratory results taken from the supplement of paper PMC7877785.
± gives the uncertainty stated by the source.

Test: self-splicing fitness, log relative to wild type (ln ratio); higher = more splicing; Tetrahymena group I intron in knt gene, E. coli kanamycin selection, DiMSum; sequences stand for … in CUCUCU…GGAGGGAAAAGUUAUCAGGCAUGCACCUGGUAGCUAGUCUUUAAACCAAUAGAUUGCAUCGGUUUAAAAGGCAAGACCGUCAAAUUGCGGGAAAGGGGUCAACAGCCGUUCAGUACCAAGUCUCAGGGGAAACUUUGAGAUGGCCUUGCAAAGGGUAUGGUAAUAAGCUGACGGACAUGGUCCUAACCACGCAGCCAAGUCCUAAGUCAACAGAUCUUCUGUUGAUAUGGAUGCAGUUCACAGACUAAAUGUCGGUCGGGGAAGAUGUAUUCUUCUCAUAAGAUAUAGUCGGACCUCUCCUUAAUGGGAGCUAGCGGAUGAAGUGAUGCAACACUGGAGCCGCUGGGAACUAAUUUGUAUGCGAAAGUAUAUUGAUUAGUUUUGGAGUACUCGUGGUCG
Summary of the method: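 A randomised library covering all eight P1ex-region intron nucleotides was built with the intron in the knt kanamycin-resistance gene on pET-22b(+) and held in E. coli BL21(DE3). Cells were grown overnight at 37°C or 30°C on LB agar, with or without 25 μg/mL kanamycin, plus 100 μg/mL carbenicillin, 50 μM IPTG and 0.2% rhamnose, and pooled colonies were amplicon-sequenced on an Illumina HiSeq 2500. DiMSum fitness is the error-weighted combination of wild-type-normalised replicate fold changes, kanamycin versus none.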

Row | Sequence | self-splicing fitness (ln) (30 °C) | self-splicing fitness (ln) (37 °C)
1 | CAGUAGCAAUAUUACGCUAA | -2.26 ± 0.5 | -2.38 ± 0.32
2 | CAGUAGCAAUAUUACGCUGA | -2.07 ± 0.24 | -1.95 ± 0.3
3 | CAGUAGCAAUAUUACGCUGC | – | -1.92 ± 0.43
4 | CAGUAGCAAUAUUACGGAAA | -3.56 ± 0.47 | -3.19 ± 0.4
5 | CAGUAGCAAUAUUACGGAAC | – | -2.72 ± 0.43
6 | CAGUAGCAAUAUUACGGACA | -2.94 ± 0.17 | -2.23 ± 0.17
7 | CAGUAGCAAUAUUACGGACG | -0.216 ± 0.11 | 0.702 ± 0.16
8 | CAGUAGCAAUAUUACGGGAU | -4.35 ± 0.31 | -3.18 ± 0.16
9 | CAGUAGCAAUAUUACGGUGG | -0.646 ± 0.06 | -0.131 ± 0.09
10 | CAGUAGCAAUAUUACGUAAU | -4 ± 0.28 | -2.63 ± 0.44
11 | CAGUAGCAAUAUUACGUACG | 0.212 ± 0.13 | 0.0818 ± 0.15
12 | CAGUAGCAAUAUUACGUGGG | -3.85 ± 0.29 | -1.92 ± 0.21
13 | CAGUAGCAAUAUUACGUUUC | -3.64 ± 0.3 | -2.69 ± 0.3
14 | CAUAAGCAAUAUUACGAACA | -3.64 ± 0.4 | -2.06 ± 0.38
15 | CAUAAGCAAUAUUACGAAGA | -2.84 ± 0.37 | -3.15 ± 0.33
16 | CAUAAGCAAUAUUACGCAAU | -3.2 ± 0.25 | -2.59 ± 0.36
17 | CAUAAGCAAUAUUACGCGCC | -3.87 ± 0.4 | -1.47 ± 0.34
18 | CAUAAGCAAUAUUACGCGGU | -3.72 ± 0.24 | -2.34 ± 0.17
19 | CAUAAGCAAUAUUACGCUCU | -2.58 ± 0.19 | -1.3 ± 0.12
20 | CAUAAGCAAUAUUACGCUGC | -3.86 ± 0.21 | -3.23 ± 0.3
21 | CAUAAGCAAUAUUACGCUUC | -2.57 ± 0.27 | -2.19 ± 0.3
22 | CAUAAGCAAUAUUACGGACU | -3.64 ± 0.18 | -2.97 ± 0.23
23 | CAUAAGCAAUAUUACGGAGC | -3.94 ± 0.29 | -3.35 ± 0.22
24 | CAUAAGCAAUAUUACGGAGU | -3.14 ± 0.15 | -2.35 ± 0.2
25 | CAUAAGCAAUAUUACGGAUG | -3.14 ± 0.14 | -2.17 ± 0.15

Row | Sequence | self-splicing fitness (ln) (30 °C) | self-splicing fitness (ln) (37 °C)
26 | CAUAAGCAAUAUUACGGCGC | -2.68 ± 0.42 | -3.17 ± 0.35
27 | CAUAAGCAAUAUUACGGCUG | -0.37 ± 0.082 | 0.0915 ± 0.12
28 | CAUAAGCAAUAUUACGGGGA | -2.02 ± 0.17 | -2.83 ± 0.23
29 | CAUAAGCAAUAUUACGGGGG | -2.49 ± 0.094 | -2.42 ± 0.14
30 | CAUAAGCAAUAUUACGGUCG | 0.0543 ± 0.064 | -0.0112 ± 0.079
31 | CAUAAGCAAUAUUACGUAAG | 0.111 ± 0.062 | 0.3 ± 0.079
32 | CAUAAGCAAUAUUACGUACC | -1.97 ± 0.3 | –
33 | CAUAAGCAAUAUUACGUACG | -0.507 ± 0.053 | 0.239 ± 0.074
34 | CAUAAGCAAUAUUACGUCAG | -1.26 ± 0.13 | 0.389 ± 0.15
35 | CAUAAGCAAUAUUACGUGAC | -2.48 ± 0.15 | -2.03 ± 0.22
36 | CAUAAGCAAUAUUACGUGGC | – | -1.86 ± 0.25
37 | CAUAAGCAAUAUUACGUUAA | -2.6 ± 0.23 | -2.92 ± 0.4
38 | CAUCAGCAAUAUUACGAAAU | -4.26 ± 0.2 | -2.66 ± 0.16
39 | CAUCAGCAAUAUUACGAAUG | -3.18 ± 0.16 | -2.05 ± 0.14
40 | CAUCAGCAAUAUUACGACAA | -2.31 ± 0.24 | -1.41 ± 0.21
41 | CAUCAGCAAUAUUACGACGU | -0.965 ± 0.064 | -0.79 ± 0.09
42 | CAUCAGCAAUAUUACGAGAA | -2.12 ± 0.21 | -2.09 ± 0.18
43 | CAUCAGCAAUAUUACGAUCG | -0.307 ± 0.12 | -0.125 ± 0.15
44 | CAUCAGCAAUAUUACGAUUU | -0.551 ± 0.071 | 0.205 ± 0.1
45 | CAUCAGCAAUAUUACGCAUC | -1.34 ± 0.13 | -1.02 ± 0.15
46 | CAUCAGCAAUAUUACGCCGC | -3.14 ± 0.36 | –
47 | CAUCAGCAAUAUUACGCGAG | 0.128 ± 0.083 | -0.05 ± 0.1
48 | CAUCAGCAAUAUUACGCGCC | -2.74 ± 0.27 | -1.05 ± 0.27
49 | CAUCAGCAAUAUUACGCGGG | -2.04 ± 0.13 | -0.735 ± 0.12
50 | CAUCAGCAAUAUUACGCGUU | -2.17 ± 0.1 | -1.54 ± 0.13

Row | Sequence | self-splicing fitness (ln) (30 °C) | self-splicing fitness (ln) (37 °C)
51 | CAUCAGCAAUAUUACGGAAA | -2.66 ± 0.23 | -0.167 ± 0.14
52 | CAUCAGCAAUAUUACGGAAC | -2.6 ± 0.19 | -2.54 ± 0.36
53 | CAUCAGCAAUAUUACGGCAU | -2.85 ± 0.15 | -1.66 ± 0.17
54 | CAUCAGCAAUAUUACGGCCG | -0.131 ± 0.093 | -0.0546 ± 0.14
55 | CAUCAGCAAUAUUACGGCGU | -2.3 ± 0.14 | -1.94 ± 0.17
56 | CAUCAGCAAUAUUACGGUAC | -2.95 ± 0.17 | -2.71 ± 0.18
57 | CAUCAGCAAUAUUACGUACA | -2.24 ± 0.14 | -1.92 ± 0.16
58 | CAUCAGCAAUAUUACGUGAC | -3.66 ± 0.19 | -1.2 ± 0.14
59 | CAUCAGCAAUAUUACGUGUC | -3.93 ± 0.19 | -1.08 ± 0.12
60 | CAUCAGCAAUAUUACGUUGC | -3.81 ± 0.27 | -2.84 ± 0.2
61 | CAUCAGCAAUAUUACGUUUU | -2.67 ± 0.1 | -1.8 ± 0.11
62 | CAUGAGCAAUAUUACGCACU | – | -1.96 ± 0.24
63 | CAUGAGCAAUAUUACGCAGU | -4.2 ± 0.39 | -2.63 ± 0.23
64 | CAUGAGCAAUAUUACGCAUA | -2.29 ± 0.26 | -1.78 ± 0.23
65 | CAUGAGCAAUAUUACGCCGA | -2.14 ± 0.47 | -2.48 ± 0.31
66 | CAUGAGCAAUAUUACGCGAA | -3.03 ± 0.17 | -1.57 ± 0.15
67 | CAUGAGCAAUAUUACGCGGC | -2.22 ± 0.43 | -2.58 ± 0.29
68 | CAUGAGCAAUAUUACGCUUC | – | -2.38 ± 0.32
69 | CAUGAGCAAUAUUACGGGUA | -2.86 ± 0.28 | -2.23 ± 0.28
70 | CAUGAGCAAUAUUACGGUAC | -2.67 ± 0.41 | -2.32 ± 0.34
71 | CAUGAGCAAUAUUACGUAAG | -0.906 ± 0.096 | -0.568 ± 0.11
72 | CAUGAGCAAUAUUACGUGAU | -2.58 ± 0.14 | -2.68 ± 0.2
73 | CAUGAGCAAUAUUACGUGCC | -3.97 ± 0.33 | -2.47 ± 0.32
74 | CAUGAGCAAUAUUACGUUAC | -3.24 ± 0.15 | -3.39 ± 0.2
75 | CAUUAGCAAUAUUACGAAAA | -2.21 ± 0.46 | -1.46 ± 0.45

Row | Sequence | self-splicing fitness (ln) (30 °C) | self-splicing fitness (ln) (37 °C)
76 | CAUUAGCAAUAUUACGAACG | 0.479 ± 0.09 | 0.736 ± 0.099
77 | CAUUAGCAAUAUUACGAAGU | – | -1.37 ± 0.44
78 | CAUUAGCAAUAUUACGAGCC | -2.89 ± 0.23 | -2.08 ± 0.27
79 | CAUUAGCAAUAUUACGAUCC | – | 0.538 ± 0.22
80 | CAUUAGCAAUAUUACGCACC | -2.94 ± 0.23 | -1.53 ± 0.19
81 | CAUUAGCAAUAUUACGCCAA | -2.88 ± 0.33 | -2.63 ± 0.48
82 | CAUUAGCAAUAUUACGCCCG | 0.404 ± 0.13 | 0.579 ± 0.17
83 | CAUUAGCAAUAUUACGCCGA | -2.32 ± 0.19 | -2.18 ± 0.2
84 | CAUUAGCAAUAUUACGCCGC | -1.43 ± 0.29 | –
85 | CAUUAGCAAUAUUACGCGCA | -1.39 ± 0.16 | -1.52 ± 0.17
86 | CAUUAGCAAUAUUACGCGUU | -2.44 ± 0.12 | -1.48 ± 0.17
87 | CAUUAGCAAUAUUACGGAAA | -3.86 ± 0.47 | -2.52 ± 0.3
88 | CAUUAGCAAUAUUACGGAGA | -3.12 ± 0.41 | -2.39 ± 0.3
89 | CAUUAGCAAUAUUACGGAUA | -2.16 ± 0.12 | -1.42 ± 0.13
90 | CAUUAGCAAUAUUACGGCGA | -2.09 ± 0.3 | -3.32 ± 0.47
91 | CAUUAGCAAUAUUACGGCGG | 0.0154 ± 0.093 | 0.252 ± 0.12
92 | CAUUAGCAAUAUUACGGGCG | -0.183 ± 0.092 | 0.436 ± 0.098
93 | CAUUAGCAAUAUUACGGGCU | -1.68 ± 0.2 | -2.7 ± 0.3
94 | CAUUAGCAAUAUUACGGGGC | -3.44 ± 0.23 | -1.95 ± 0.23
95 | CAUUAGCAAUAUUACGGUCA | -2.02 ± 0.3 | -1.63 ± 0.3
96 | CAUUAGCAAUAUUACGGUCU | -3.48 ± 0.31 | -2.22 ± 0.29
97 | CAUUAGCAAUAUUACGUAGC | -3.25 ± 0.19 | -2.4 ± 0.17
98 | CAUUAGCAAUAUUACGUAUA | -2.34 ± 0.14 | -0.81 ± 0.12
